# Measured values taken from US20200024360A1 (Janssen / Centocor, published 2020).
# B1: PS3B27 (bispecific antibody, human IgG4 S228P, kappa, lambda, F234A L235A)
# heavy 1: not shown
# light 1: not shown
# heavy 2: EVQLVESGGGLVQPGGSLRLSCAASGFTFNTYAMNWVRQAPGKGLEWVARIRSKYNNYATYYAASVKGRFTISRDDSKNSLYLQMNSLKTEDTAVYYCARHGNFGNSYVSWFAYWGQGTLVTVSSASTKGPSVFPLAPCSRSTSESTAALGCLVKDYFPEPVTVSWNSGALTSGVHTFPAVLQSSGLYSLSSVVTVPSSSLGTKTYTCNVDHKPSNTKVDKRVESKYGPPCPPCPAPEAAGGPSVFLFPPKPKDTLMISRTPEVTCVVVDVSQEDPEVQFNWYVDGVEVHNAKTKPREEQFNSTYRVVSVLTVLHQDWLNGKEYKCKVSNKGLPSSIEKTISKAKGQPREPQVYTLPPSQEEMTKNQVSLTCLVKGFYPSDIAVEWESNGQPENNYKTTPPVLDSDGSFLLYSKLTVDKSRWQEGNVFSCSVMHEALHNHYTQKSLSLSLGK
# light 2: QTVVTQEPSLTVSPGGTVTLTCRSSTGAVTTSNYANWVQQKPGQAPRGLIGGTNKRAPGTPARFSGSLLGGKAALTLSGVQPEDEAEYYCALWYSNLWVFGGGTKLTVLGQPKAAPSVTLFPPSSEELQANKATLVCLISDFYPGAVTVAWKADSSPVKAGVETTTPSKQSNNKYAASSYLSLTPEQWKSHRSYSCQVTHEGSTVEKTVAPTECS
# notes: IgG4 PAA; PSMA arm chains first, then CD3 arm (F405L, R409K); also called PSMB127 x CD3B219; PS2B27
# Target: human PSMA (prostate specific membrane antigen), full length (human, UniProt Q04609 1-750)
# Experiment: cell-based or functional assay
binder,measurement,value
B1,"EC50, T-cell dependent cytotoxicity (caspase 3/7), C-42B, donor M2550",0.11 nM
same,"EC50, T-cell dependent cytotoxicity (caspase 3/7), C-42B, donor M5524",0.06 nM
same,"EC50, T-cell dependent cytotoxicity (caspase 3/7), C-42B, donor M5772",0.03 nM
same,"EC50, T-cell dependent cytotoxicity (caspase 3/7), C-42B, donor M7259",0.06 nM
same,"EC50, T-cell dependent cytotoxicity (caspase 3/7), C-42B, donor M7444",0.05 nM
same,"EC50, T-cell dependent cytotoxicity (caspase 3/7), LNCaP FGc, donor M2550",0.27 nM
same,"EC50, T-cell dependent cytotoxicity (caspase 3/7), LNCaP FGc, donor M5524",0.09 nM
same,"EC50, T-cell dependent cytotoxicity (caspase 3/7), LNCaP FGc, donor M5772",0.04 nM
same,"EC50, T-cell dependent cytotoxicity (caspase 3/7), LNCaP FGc, donor M7259",0.05 nM
same,"EC50, T-cell dependent cytotoxicity (caspase 3/7), LNCaP FGc, donor M7444",0.09 nM
